{
  "source": "the RNAGym collection of RNA variant scans (doi:10.7554/elife.80360)",
  "parents": {"B1": {"name": "HDV Ribozyme (parent)", "chain": "GGCCGGCAUGGUCCCAGCCUCCUCGCUGGCGCCGGCUGGGCAACAUUCCGAGGGGACCGUCCCCUCGGUAAUGGCGAAUGGGACCCA"}},
  "data": [
    {"variants_of": "B1", "test": "self-cleavage, relative activity (ratio to wild type); higher = more cleavage; co-transcriptional", "values": [
      {"variant": "G40U C85U", "self-cleavage": 0.911},
      {"variant": "G40U C85A", "self-cleavage": 0.427},
      {"variant": "G39C C86A", "self-cleavage": 0.261},
      {"variant": "G40C U72A", "self-cleavage": 0.124},
      {"variant": "G40C U72C", "self-cleavage": 0.174},
      {"variant": "G40C G52A", "self-cleavage": 0.247},
      {"variant": "G40C G52U", "self-cleavage": 0.246},
      {"variant": "G40C G52C", "self-cleavage": 0.0573},
      {"variant": "G40C C62A", "self-cleavage": 0.237},
      {"variant": "G40C C62G", "self-cleavage": 0},
      {"variant": "G39U U47G", "self-cleavage": 0.323},
      {"variant": "G39U U47A", "self-cleavage": 0.554},
      {"variant": "G39U A78U", "self-cleavage": 0.157},
      {"variant": "G39U A78C", "self-cleavage": 0.13},
      {"variant": "G39U A78G", "self-cleavage": 0.198},
      {"variant": "G40C G80C", "self-cleavage": 0.0608},
      {"variant": "G40U A43C", "self-cleavage": 0.374},
      {"variant": "G40U A43U", "self-cleavage": 0.146},
      {"variant": "G40A G54U", "self-cleavage": 0.971},
      {"variant": "G40C A51U", "self-cleavage": 0.157},
      {"variant": "G40C A71G", "self-cleavage": 0.162},
      {"variant": "G40C A71U", "self-cleavage": 0.228},
      {"variant": "G39C A45U", "self-cleavage": 0.0475},
      {"variant": "G40U C62A", "self-cleavage": 0.709},
      {"variant": "G40U C62U", "self-cleavage": 0.872},
      {"variant": "G39C G74C", "self-cleavage": 0.166},
      {"variant": "G39C G74U", "self-cleavage": 0.251},
      {"variant": "G39C C85G", "self-cleavage": 0.298},
      {"variant": "G39C C85A", "self-cleavage": 0.203},
      {"variant": "G39C C85U", "self-cleavage": 0.405},
      {"variant": "G40C U60C", "self-cleavage": 0.332},
      {"variant": "G40C U60G", "self-cleavage": 0.271},
      {"variant": "G40C U69C", "self-cleavage": 0.158},
      {"variant": "G40A C44U", "self-cleavage": 0.582},
      {"variant": "G40A C44A", "self-cleavage": 0.692},
      {"variant": "G40A C44G", "self-cleavage": 0.302},
      {"variant": "G40A G76A", "self-cleavage": 0.918},
      {"variant": "G40U C48G", "self-cleavage": 0.665},
      {"variant": "G40U C48A", "self-cleavage": 0.76},
      {"variant": "G40U C48U", "self-cleavage": 0.628},
      {"variant": "G40A G50C", "self-cleavage": 0.92},
      {"variant": "G40A G50U", "self-cleavage": 0.842},
      {"variant": "G40U C66A", "self-cleavage": 0.702},
      {"variant": "G40U C66U", "self-cleavage": 0.753},
      {"variant": "G40U C66G", "self-cleavage": 0.582},
      {"variant": "G40A C41A", "self-cleavage": 0.893},
      {"variant": "G40A C41G", "self-cleavage": 0.937},
      {"variant": "G40A C84U", "self-cleavage": 0.377},
      {"variant": "G40A C84G", "self-cleavage": 0.594},
      {"variant": "G40U A42C", "self-cleavage": 0.671},
      {"variant": "G39U U60G", "self-cleavage": 0.502},
      {"variant": "G39U A83C", "self-cleavage": 0.157},
      {"variant": "G39U A83U", "self-cleavage": 0.259},
      {"variant": "G40A A87G", "self-cleavage": 0.959},
      {"variant": "G40U C84U", "self-cleavage": 0.398},
      {"variant": "G40U C84A", "self-cleavage": 0.383},
      {"variant": "G40U C84G", "self-cleavage": 0.354},
      {"variant": "G40C C48A", "self-cleavage": 0.424},
      {"variant": "G40C C48G", "self-cleavage": 0.35},
      {"variant": "G39U A42G", "self-cleavage": 0.249},
      {"variant": "G39C G81C", "self-cleavage": 0.089},
      {"variant": "G39C C64G", "self-cleavage": 0.295},
      {"variant": "G39C C64U", "self-cleavage": 0.224},
      {"variant": "G40C", "self-cleavage": 0.299},
      {"variant": "G40A", "self-cleavage": 0.962},
      {"variant": "G40U", "self-cleavage": 0.717},
      {"variant": "G39C C63U", "self-cleavage": 0.369},
      {"variant": "G39C C63A", "self-cleavage": 0.259},
      {"variant": "G39C G76C", "self-cleavage": 0.514},
      {"variant": "G40C G59A", "self-cleavage": 0.179},
      {"variant": "G40C G59U", "self-cleavage": 0.326},
      {"variant": "G39C C84G", "self-cleavage": 0.0462},
      {"variant": "G39C C84A", "self-cleavage": 0.19},
      {"variant": "G39C C75G", "self-cleavage": 0.0831},
      {"variant": "G39C C75U", "self-cleavage": 0.0583},
      {"variant": "G39C C75A", "self-cleavage": 0.142},
      {"variant": "G40U A51C", "self-cleavage": 0.627},
      {"variant": "G40U A51G", "self-cleavage": 0.717},
      {"variant": "G39U C58G", "self-cleavage": 0.506},
      {"variant": "G40C A78C", "self-cleavage": 0.147},
      {"variant": "G40C C85U", "self-cleavage": 0.0804},
      {"variant": "G40C C85A", "self-cleavage": 0.128},
      {"variant": "G39U C63U", "self-cleavage": 0.915},
      {"variant": "G40C U47G", "self-cleavage": 0.173},
      {"variant": "G40C U47A", "self-cleavage": 0.0845},
      {"variant": "G40U C64G", "self-cleavage": 0.446},
      {"variant": "G40C G74U", "self-cleavage": 0.202},
      {"variant": "G40A A83U", "self-cleavage": 0.251},
      {"variant": "G40A A83G", "self-cleavage": 0.573},
      {"variant": "G40A A83C", "self-cleavage": 0.272},
      {"variant": "G39C A78U", "self-cleavage": 0.131},
      {"variant": "G39C C62U", "self-cleavage": 0.237},
      {"variant": "G39U G68C", "self-cleavage": 0.532},
      {"variant": "G39C C66G", "self-cleavage": 0.185},
      {"variant": "G39C C66A", "self-cleavage": 0.361},
      {"variant": "G39C U65A", "self-cleavage": 0.0462},
      {"variant": "G39U C61G", "self-cleavage": 0.464},
      {"variant": "G39U C61A", "self-cleavage": 0.589},
      {"variant": "G39C C61A", "self-cleavage": 0.192},
      {"variant": "G40A C66G", "self-cleavage": 0.655},
      {"variant": "G40A C66U", "self-cleavage": 0.892},
      {"variant": "G40A A78U", "self-cleavage": 0.404},
      {"variant": "G40A A78G", "self-cleavage": 0.795},
      {"variant": "G40C A56U", "self-cleavage": 0.381},
      {"variant": "G39C A56G", "self-cleavage": 0.356},
      {"variant": "G39C A56U", "self-cleavage": 0.13},
      {"variant": "G39C A56C", "self-cleavage": 0.18},
      {"variant": "G39C G59U", "self-cleavage": 0.147},
      {"variant": "G40C G73U", "self-cleavage": 0.233},
      {"variant": "G39U C62U", "self-cleavage": 0.918},
      {"variant": "G39C G80C", "self-cleavage": 0.0845},
      {"variant": "G39C G80A", "self-cleavage": 0.0511},
      {"variant": "G39C U72C", "self-cleavage": 0.155},
      {"variant": "G39C U72G", "self-cleavage": 0.128},
      {"variant": "G40U C61U", "self-cleavage": 0.631},
      {"variant": "G40U C61G", "self-cleavage": 0.534},
      {"variant": "G40U C61A", "self-cleavage": 0.632},
      {"variant": "G39U G73C", "self-cleavage": 0.3},
      {"variant": "G40C G53U", "self-cleavage": 0.337},
      {"variant": "G40C G53C", "self-cleavage": 0.17},
      {"variant": "G40C G53A", "self-cleavage": 0.332},
      {"variant": "G40A A71U", "self-cleavage": 0.796},
      {"variant": "G39U G50U", "self-cleavage": 0.627},
      {"variant": "G39U G50A", "self-cleavage": 0.681},
      {"variant": "G39U A71G", "self-cleavage": 0.383},
      {"variant": "G39U A71C", "self-cleavage": 0.308},
      {"variant": "G39C A51G", "self-cleavage": 0.38},
      {"variant": "G39C A51C", "self-cleavage": 0.291},
      {"variant": "G39U C57G", "self-cleavage": 0.786},
      {"variant": "G39C G52U", "self-cleavage": 0.253},
      {"variant": "G39C G52A", "self-cleavage": 0.218},
      {"variant": "G39C G68U", "self-cleavage": 0.246},
      {"variant": "G39C G68A", "self-cleavage": 0.241},
      {"variant": "G40C A83G", "self-cleavage": 0.163},
      {"variant": "G39U A56C", "self-cleavage": 0.701},
      {"variant": "G39U A56U", "self-cleavage": 0.819},
      {"variant": "G40U A87C", "self-cleavage": 0.732},
      {"variant": "G39U A43U", "self-cleavage": 0.148},
      {"variant": "G39U C66U", "self-cleavage": 0.724},
      {"variant": "G39U U79G", "self-cleavage": 0.277},
      {"variant": "G39U U79A", "self-cleavage": 0.148},
      {"variant": "G39U U79C", "self-cleavage": 0.155},
      {"variant": "G39C A77C", "self-cleavage": 0.0519},
      {"variant": "G39C A77U", "self-cleavage": 0.121},
      {"variant": "G39C A87G", "self-cleavage": 0.204},
      {"variant": "G39C A87C", "self-cleavage": 0.323},
      {"variant": "G40C U46A", "self-cleavage": 0.0339},
      {"variant": "G40C U46G", "self-cleavage": 0.0831},
      {"variant": "G39U G53C", "self-cleavage": 0.831},
      {"variant": "G39U G53A", "self-cleavage": 0.789},
      {"variant": "G40A C62U", "self-cleavage": 0.853},
      {"variant": "G40A C62A", "self-cleavage": 0.95},
      {"variant": "G39C C58G", "self-cleavage": 0.277},
      {"variant": "G39U A51C", "self-cleavage": 0.849},
      {"variant": "G39U A51G", "self-cleavage": 0.818},
      {"variant": "G39C U60A", "self-cleavage": 0.481},
      {"variant": "G39C U60G", "self-cleavage": 0.185},
      {"variant": "G39C U60C", "self-cleavage": 0.415},
      {"variant": "G40U A45U", "self-cleavage": 0.361},
      {"variant": "G40U A45G", "self-cleavage": 0.688},
      {"variant": "G39C C48G", "self-cleavage": 0.262},
      {"variant": "G39C C48U", "self-cleavage": 0.405},
      {"variant": "G39U A45C", "self-cleavage": 0.196},
      {"variant": "G39U A45U", "self-cleavage": 0.325},
      {"variant": "G40U A78U", "self-cleavage": 0.191},
      {"variant": "G40U A78C", "self-cleavage": 0.132},
      {"variant": "G39C G82C", "self-cleavage": 0.0997}
    ]}
  ]
}
